The record followed here is the supplement of paper PMC10567573.

First the molecules themselves.
B1: SMARCE1 (parent)
chain: YHNSPAYLAYINAKSRAEAALEEE
B2: ZNF649 (parent)
chain: LVAHQRYHTGKTPFVCPECGQPCS
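Note: lentivirally expressed fusions sorted by FACS into six bins by GFP to DsRed ratio, PSI derived from sequencing read proportions per bin multiplied by bin number.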

In the first data set the parent is B1. Nature of the data set: protein stability index of a GFP-peptide fusion (GPS, HEK-293T) (PSI 1-6); higher = more stable. Conditions: c terminus: a fixed tail appended.
In the case of YHNSPDYLAYINAKSRAEAALEEE, the protein stability index was found to be 2.12.

As to YHNSPTYLAYINAKSRAEAALEEE, the protein stability index was found to be 1.78.

Turning to YHNSPMYLAYINAKSRAEAALEEE, the protein stability index was 2.07.

Consider YHNSPEYLAYINAKSRAEAALEEE, for which the protein stability index is 2.58.

Regarding YHNSPGYLAYINAKSRAEAALEEE, the protein stability index was found to be 2.37.

With YHNSPYYLAYINAKSRAEAALEEE, the protein stability index is 2.23.

Regarding YHNSPAYIAYINAKSRAEAALEEE, the protein stability index amounted to 3.09.

Turning to YHNSPAYNAYINAKSRAEAALEEE, the protein stability index was determined as 3.65.

Consider YHNSPAYKAYINAKSRAEAALEEE, for which the protein stability index is 3.83.

Regarding YHNSPAYAAYINAKSRAEAALEEE, the protein stability index worked out at 3.39.

For the variant YHNSPAYHAYINAKSRAEAALEEE, the protein stability index was determined as 2.12.

Regarding YHNSPAYWAYINAKSRAEAALEEE, the protein stability index is 2.04.

Consider YHNSPAYCAYINAKSRAEAALEEE, for which the protein stability index stood at 3.05.

For the variant YHNSPAYEAYINAKSRAEAALEEE, the protein stability index is 1.8.

In the case of YHNSPAYTAYINAKSRAEAALEEE, the protein stability index came to 2.81.

In the case of YHNSPAYVAYINAKSRAEAALEEE, the protein stability index was 2.49.

For YHNSPAYQAYINAKSRAEAALEEE, the protein stability index was 3.47.

With YHNSPAYFAYINAKSRAEAALEEE, the protein stability index stood at 2.93.

As to YHNSPAYYAYINAKSRAEAALEEE, the protein stability index came to 2.5.

Turning to YHNSPAYPAYINAKSRAEAALEEE, the protein stability index came to 1.81.

For YHNSPAYGAYINAKSRAEAALEEE, the protein stability index is 1.69.

For YHNSPAYMAYINAKSRAEAALEEE, the protein stability index turned out to be 2.23.

Take YHNSPAYRAYINAKSRAEAALEEE: the protein stability index was found to be 2.47.

YHNSPAYSAYINAKSRAEAALEEE: the protein stability index came to 3.08.

Regarding YHNSPAYDAYINAKSRAEAALEEE, the protein stability index was 2.22.

YHPSPAYLAYINAKSRAEAALEEE: the protein stability index stood at 1.55.

As for YHHSPAYLAYINAKSRAEAALEEE, the protein stability index was 1.69.

Consider YHWSPAYLAYINAKSRAEAALEEE, for which the protein stability index was determined as 1.89.

On to YHESPAYLAYINAKSRAEAALEEE, for which the protein stability index came to 2.22.

Take YHDSPAYLAYINAKSRAEAALEEE: the protein stability index came to 1.89.

Regarding YHMSPAYLAYINAKSRAEAALEEE, the protein stability index is 2.06.

For YHFSPAYLAYINAKSRAEAALEEE, the protein stability index is 1.81.

YHISPAYLAYINAKSRAEAALEEE: the protein stability index was 2.08.

For the variant YHKSPAYLAYINAKSRAEAALEEE, the protein stability index is 2.89.

Take YHASPAYLAYINAKSRAEAALEEE: the protein stability index worked out at 2.05.

Take YHQSPAYLAYINAKSRAEAALEEE: the protein stability index was determined as 1.57.

With YHLSPAYLAYINAKSRAEAALEEE, the protein stability index stood at 1.95.

YHGSPAYLAYINAKSRAEAALEEE: the protein stability index came to 2.28.

With YHYSPAYLAYINAKSRAEAALEEE, the protein stability index is 2.87.

For the variant YHSSPAYLAYINAKSRAEAALEEE, the protein stability index worked out at 1.81.

For the variant YHVSPAYLAYINAKSRAEAALEEE, the protein stability index was 2.03.

As to YHTSPAYLAYINAKSRAEAALEEE, the protein stability index came to 2.19.

As for YHRSPAYLAYINAKSRAEAALEEE, the protein stability index turned out to be 2.26.

On to YHCSPAYLAYINAKSRAEAALEEE, for which the protein stability index was determined as 1.34.

In the case of YHNSPAHLAYINAKSRAEAALEEE, the protein stability index came to 2.78.

Consider YHNSPAKLAYINAKSRAEAALEEE, for which the protein stability index stood at 3.

In the case of YHNSPANLAYINAKSRAEAALEEE, the protein stability index was determined as 2.31.

With YHNSPASLAYINAKSRAEAALEEE, the protein stability index is 2.76.

Consider YHNSPADLAYINAKSRAEAALEEE, for which the protein stability index turned out to be 3.12.

Regarding YHNSPAVLAYINAKSRAEAALEEE, the protein stability index came to 2.91.

With YHNSPATLAYINAKSRAEAALEEE, the protein stability index was determined as 2.95.

As to YHNSPAQLAYINAKSRAEAALEEE, the protein stability index is 2.77.

For the variant YHNSPAMLAYINAKSRAEAALEEE, the protein stability index was 2.4.

Regarding YHNSPAILAYINAKSRAEAALEEE, the protein stability index worked out at 2.47.

As to YHNSPAGLAYINAKSRAEAALEEE, the protein stability index was 2.31.

For YHNSPARLAYINAKSRAEAALEEE, the protein stability index amounted to 2.76.

For the variant YHNSPAWLAYINAKSRAEAALEEE, the protein stability index was determined as 2.31.

In the case of YHNSPAFLAYINAKSRAEAALEEE, the protein stability index stood at 2.64.

Regarding YHNSPALLAYINAKSRAEAALEEE, the protein stability index was 2.28.

As for YHNSPAALAYINAKSRAEAALEEE, the protein stability index amounted to 2.66.

In the case of YHNSPAPLAYINAKSRAEAALEEE, the protein stability index is 2.98.

As for YHNSPACLAYINAKSRAEAALEEE, the protein stability index came to 2.26.

As for YHNSPAELAYINAKSRAEAALEEE, the protein stability index is 3.06.

Variants of B2 are the subject of another data set. Described as above. The settings on record: c terminus: a fixed tail appended.
Consider LVAHQRYHTGKTPFVCPECGQPCQ, for which the protein stability index turned out to be 3.12.

As for LVAHQRYHTGKTPFVCPECGQPCD, the protein stability index was found to be 3.76.

Regarding LVAHQRYHTGKTPFVCPECGQPCM, the protein stability index stood at 2.67.

LVAHQRYHTGKTPFVCPECGQPCG: the protein stability index turned out to be 3.54.

On to LVAHQRYHTGKTPFVCPECGQPCP, for which the protein stability index amounted to 3.57.

Consider LVAHQRYHTGKTPFVCPECGQPCF, for which the protein stability index came to 3.71.

For the variant LVAHQRYHTGKTPFVCPECGQPCN, the protein stability index was determined as 2.97.

For the variant LVAHQRYHTGKTPFVCPECGQPCK, the protein stability index came out at 3.23.

For LVAHQRYHTGKTPFVCPECGQPCL, the protein stability index stood at 2.82.

On to LVAHQRYHTGKTPFVCPECGQPCI, for which the protein stability index was 2.77.

Consider LVAHQRYHTGKTPFVCPECGQPCW, for which the protein stability index came out at 3.08.

For the variant LVAHQRYHTGKTPFVCPECGQPCA, the protein stability index came to 2.94.

As to LVAHQRYHTGKTPFVCPECGQPCC, the protein stability index is 3.13.

Turning to LVAHQRYHTGKTPFVCPECGQPCY, the protein stability index was 2.62.

On to LVAHQRYHTGKTPFVCPECGQPCH, for which the protein stability index is 3.23.

Turning to LVAHQRYHTGKTPFVCPECGQPCR, the protein stability index was found to be 2.68.

Regarding LVAHQRYHTGKTPFVCPECGQPCV, the protein stability index worked out at 3.13.

As for LVAHQRYHTGKTPFVCPECGQPCT, the protein stability index was found to be 3.36.

With LVAHQRYHTGKTPFVCPECGQPCE, the protein stability index was determined as 3.36.

In the case of LVAHQRYHTGKTPFVCPECGQPRS, the protein stability index came out at 3.19.

On to LVAHQRYHTGKTPFVCPECGQPKS, for which the protein stability index was found to be 3.12.

For LVAHQRYHTGKTPFVCPECGQPMS, the protein stability index was determined as 2.54.

Consider LVAHQRYHTGKTPFVCPECGQPYS, for which the protein stability index is 2.31.

As to LVAHQRYHTGKTPFVCPECGQPVS, the protein stability index stood at 2.99.

LVAHQRYHTGKTPFVCPECGQPLS: the protein stability index is 2.67.

LVAHQRYHTGKTPFVCPECGQPSS: the protein stability index stood at 2.56.

For the variant LVAHQRYHTGKTPFVCPECGQPWS, the protein stability index was 2.42.

For LVAHQRYHTGKTPFVCPECGQPPS, the protein stability index is 3.47.

As to LVAHQRYHTGKTPFVCPECGQPQS, the protein stability index was determined as 2.73.

For the variant LVAHQRYHTGKTPFVCPECGQPTS, the protein stability index turned out to be 3.35.

Regarding LVAHQRYHTGKTPFVCPECGQPNS, the protein stability index was determined as 3.06.
